{"source": "IntAct's records for PubMed 31515488", "parents": {"B1": {"name": "Zinc finger protein 488 (Homo sapiens), Q96MN9 (parent)", "chain": "MPEWPPCLSVAPALVITMAAGKGAPLSPSAENRWRLSEPELGRGCKPVLLEKTNRLGPEAAVGRAGRDVGSAELALLVAPGKPRPGKPLPPKTRGEQRQSAFTELPRMKDRQVDAQAQEREHDDPTGQPGAPQLTQNIPRGPAGSKVFSVWPSGARSEQRSAFSKPTKRPAERPELTSVFPAGESADALGELSGLLNTTDLACWGRLSTPKLLVGDLWNLQALPQNAPLCSTFLGAPTLWLEHTQAQVPPPSSSSTTSWALLPPTLTSLGLSTQNWCAKCNLSFRLTSDLVFHMRSHHKKEHAGPDPHSQKRREEALACPVCQEHFRERHHLSRHMTSHS", "partner": "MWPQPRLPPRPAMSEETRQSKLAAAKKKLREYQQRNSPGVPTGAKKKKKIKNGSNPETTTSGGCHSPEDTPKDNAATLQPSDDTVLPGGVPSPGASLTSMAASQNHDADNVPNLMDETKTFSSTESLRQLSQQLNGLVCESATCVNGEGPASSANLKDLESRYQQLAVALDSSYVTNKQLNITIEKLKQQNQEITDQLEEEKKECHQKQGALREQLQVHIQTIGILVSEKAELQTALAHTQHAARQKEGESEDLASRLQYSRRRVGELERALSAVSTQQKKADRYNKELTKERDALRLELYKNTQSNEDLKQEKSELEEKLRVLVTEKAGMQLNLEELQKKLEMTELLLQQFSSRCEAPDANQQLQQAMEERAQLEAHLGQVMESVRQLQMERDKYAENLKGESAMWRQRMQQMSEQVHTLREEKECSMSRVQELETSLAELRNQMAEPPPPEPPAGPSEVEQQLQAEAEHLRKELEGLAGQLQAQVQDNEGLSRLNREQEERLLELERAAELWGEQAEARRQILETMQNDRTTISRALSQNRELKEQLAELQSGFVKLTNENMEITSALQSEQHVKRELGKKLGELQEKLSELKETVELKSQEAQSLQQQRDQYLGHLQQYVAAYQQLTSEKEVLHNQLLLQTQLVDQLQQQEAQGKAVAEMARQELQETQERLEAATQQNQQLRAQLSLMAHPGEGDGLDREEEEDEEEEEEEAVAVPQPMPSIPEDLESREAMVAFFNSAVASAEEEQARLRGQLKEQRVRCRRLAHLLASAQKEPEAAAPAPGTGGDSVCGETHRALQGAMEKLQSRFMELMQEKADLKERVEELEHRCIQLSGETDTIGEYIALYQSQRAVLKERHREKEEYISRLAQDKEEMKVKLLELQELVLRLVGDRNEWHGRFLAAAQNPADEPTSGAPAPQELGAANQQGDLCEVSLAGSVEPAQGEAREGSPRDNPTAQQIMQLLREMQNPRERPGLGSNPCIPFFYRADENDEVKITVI"}, "B2": {"name": "Zinc finger protein 473 (Homo sapiens), Q8WTR7 (parent)", "chain": "MAEEFVTLKDVGMDFTLGDWEQLGLEQGDTFWDTALDNCQDLFLLDPPRPNLTSHPDGSEDLEPLAGGSPEATSPDVTETKNSPLMEDFFEEGFSQEIIEMLSKDGFWNSNFGEACIEDTWLDSLLGDPESLLRSDIATNGESPTECKSHELKRGLSPVSTVSTGEDSMVHNVSEKTLTPAKSKEYRGEFFSYSDHSQQDSVQEGEKPYQCSECGKSFSGSYRLTQHWITHTREKPTVHQECEQGFDRNASLSVYPKTHTGYKFYVCNEYGTTFSQSTYLWHQKTHTGEKPCKSQDSDHPPSHDTQPGEHQKTHTDSKSYNCNECGKAFTRIFHLTRHQKIHTRKRYECSKCQATFNLRKHLIQHQKTHAAKTTSECQECGKIFRHSSLLIEHQALHAGEEPYKCNERGKSFRHNSTLKIHQRVHSGEKPYKCSECGKAFHRHTHLNEHRRIHTGYRPHKCQECVRSFSRPSHLMRHQAIHTAEKPYSCAECKETFSDNNRLVQHQKMHTVKTPYECQECGERFICGSTLKCHESVHAREKQGFFVSGKILDQNPEQKEKCFKCNKCEKTFSCSKYLTQHERIHTRGVKPFECDQCGKAFGQSTRLIHHQRIHSRVRLYKWGEQGKAISSASLIKLQSFHTKEHPFKCNECGKTFSHSAHLSKHQLIHAGENPFKCSKCDRVFTQRNYLVQHERTHARKKPLVCNECGKTFRQSSCLSKHQRIHSGEKPYVCDYCGKAFGLSAELVRHQRIHTGEKPYVCQECGKAFTQSSCLSIHRRVHTGEKPYRCGECGKAFAQKANLTQHQRIHTGEKPYSCNVCGKAFVLSAHLNQHLRVHTQETLYQCQRCQKAFRCHSSLSRHQRVHNKQQYCL", "partner": "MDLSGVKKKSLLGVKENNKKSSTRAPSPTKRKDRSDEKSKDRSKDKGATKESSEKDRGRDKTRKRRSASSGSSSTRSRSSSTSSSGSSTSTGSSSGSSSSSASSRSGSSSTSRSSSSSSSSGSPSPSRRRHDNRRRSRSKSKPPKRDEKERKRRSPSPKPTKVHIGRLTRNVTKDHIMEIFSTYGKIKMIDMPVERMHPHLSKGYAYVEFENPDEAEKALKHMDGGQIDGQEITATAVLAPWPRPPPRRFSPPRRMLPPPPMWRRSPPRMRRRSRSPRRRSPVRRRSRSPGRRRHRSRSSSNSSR"}}, "data": [{"variants_of": "B1", "details": "with goga2_human GOLGA2, Q08379", "values": [{"variant": "A72V", "effect of a mutation on the interaction": "with no effect"}, {"variant": "C230R", "effect of a mutation on the interaction": "with no effect"}]}, {"variants_of": "B2", "details": "with rnps1_human RNPS1, Q15287", "values": [{"variant": "R605Q", "effect of a mutation on the interaction": "disrupting interaction strength"}, {"variant": "S535N", "effect of a mutation on the interaction": "with no effect"}, {"variant": "E309G", "effect of a mutation on the interaction": "with no effect"}, {"variant": "N82S", "effect of a mutation on the interaction": "with no effect"}, {"variant": "T654I", "effect of a mutation on the interaction": "with no effect"}, {"variant": "R223C", "effect of a mutation on the interaction": "with no effect"}, {"variant": "T164M", "effect of a mutation on the interaction": "with no effect"}, {"variant": "S59G", "effect of a mutation on the interaction": "with no effect"}, {"variant": "S662A", "effect of a mutation on the interaction": "with no effect"}]}]}
